The record followed here is patent US20150086555A1.

Common to all, as to settings: remark: other sources report otherwise
In test [1] the target is recombinant soluble homotrimeric HA, A/duck/Yangzhou/02/05 H8N4 (Influenza A virus A/duck/Yangzhou/02/2005(H8N4)). Description: microarray, transfection SN IgG, trimeric HA.
Test [2] has as its target recombinant soluble homotrimeric HA, A/Egypt/3300-NAMRU3/08 H5N1 (Influenza A virus A/Egypt/3300-NAMRU3/2008(H5N1)). Put plainly: microarray, transfection SN IgG, trimeric HA.
Test [3] concerns the target recombinant soluble homotrimeric HA, A/Vietnam/1203/04 H5N1 (Influenza A virus A/VietNam/1203/2004(H5N1)). Description: microarray, transfection SN IgG, trimeric HA.
The target in test [4] is recombinant soluble homotrimeric HA, A/Wisconsin/67/05 H3N2 (Influenza A virus A/Wisconsin/67/2005(H3N2)). Description: microarray, transfection SN IgG, trimeric HA.
For test [5], the target named is recombinant soluble homotrimeric HA, A/Hong Kong/156/97 H5N1 (Influenza A virus A/Hong Kong/156/97 (H5N1)). Description: microarray, transfection SN IgG, trimeric HA.
The target of test [6] is recombinant soluble homotrimeric HA, A/Anhui/1/05 H5N1 (Influenza A virus A/Anhui/1/2005(H5N1)). Description: microarray, transfection SN IgG, trimeric HA.
Test [7] addresses recombinant soluble homotrimeric HA, A/California/4/09 H1N1 (Influenza A virus A/California/04/2009(H1N1)). Description: microarray, transfection SN IgG, trimeric HA.
Test [8] addresses recombinant soluble homotrimeric HA, A/northern shoveler/California/HKWF115/07 H6N4 (Influenza A virus A/northern shoveler/California/HKWF115/2007(H6N1)). Put plainly: microarray, transfection SN IgG, trimeric HA.
Test [9] concerns the target recombinant soluble homotrimeric HA, A/chicken/Vietnam/NCVD-016/08 H5N1 (Influenza A virus A/chicken/Vietnam/NCVD-016/2008(H5N1)). Put plainly: microarray, transfection SN IgG, trimeric HA.
Test [10] addresses recombinant soluble homotrimeric HA, A/South Carolina/1/18 H1N1 (Influenza A virus A/South Carolina/1/18 (H1N1)). Put plainly: microarray, transfection SN IgG, trimeric HA.
Test [11] deals with recombinant soluble homotrimeric HA, A/Indonesia/5/05 H5N1 (Influenza A virus A/Indonesia/5/2005(H5N1)). Put plainly: microarray, transfection SN IgG, trimeric HA.
The target in test [12] is recombinant soluble homotrimeric HA, A/Japan/305/57 H2N2 (Influenza A virus A/Japan/305/1957(H2N2)). Description: microarray, transfection SN IgG, trimeric HA.
The target of test [13] is recombinant soluble homotrimeric HA, A/Solomon Islands/3/06 H1N1 (Influenza A virus A/Solomon Islands/3/2006(H1N1)). Description: microarray, transfection SN IgG, trimeric HA.
The target of test [14] is recombinant homotrimeric HA A/duck/Yangzhou/02/05 H8N4 (Influenza A virus A/duck/Yangzhou/02/2005(H8N4)). Description: protein microarray, purified IgG, trimeric HA.
Test [15] deals with recombinant soluble homotrimeric HA of A/Egypt/3300-NAMRU3/08 (H5N1) (Influenza A virus A/Egypt/3300-NAMRU3/2008(H5N1)). Put plainly: HA microarray, BCC supernatant.
Test [16] concerns the target recombinant homotrimeric HA A/swine/Ontario/01911-2/99 H4N6 (Influenza A virus A/Swine/Ontario/01911-2/99 (H4N6)). Put plainly: protein microarray, purified IgG, trimeric HA.
Test [17] concerns the target recombinant soluble homotrimeric HA of A/Hong Kong/156/97 (H5N1) (Influenza A virus A/Hong Kong/156/97 (H5N1)). Description: trimeric HA microarray, transfection supernatant set 5.

B1: TCN-550 (5096_F06) (antibody, V domains shown)
VH: QVQLQESGPGLVKPSETLSLTCTVSGASINSHYWSWIRQPPGKGLEWIGYVYYSGSTTYNPSLKSRVTLSVDTSKNQFSLNLSSVTAADTAFYYCARHPYDVLTGSGDWFDPWGQGTLVTVSS
VL: SYVLTQAPSVSVAPGQTARITCGGNAIGSKKVHWYQHKAGQAPVLVVYDDTDRPSGIPERFSGSNSWSTATLTINRVEAGDEADYYCQVWDFTIDHVVFGGGTKLTVL
Turning to B1, the Trimeric HA Binding: RLU in test [1] came to 4710 RLU; in test [2], 26800 RLU; in [3], 41900 RLU; in [4], 37800 RLU; in [5], 955 RLU; in test [6], 7680 RLU. For the same molecule, the Trimeric HA Binding: RLU was determined as 628 RLU in test [7]; 2300 RLU in [8]; 1800 RLU in [9]; 1010 RLU in test [10]; 9000 RLU in [11]; 731 RLU in test [12]. For the same molecule, the figures for the Trimeric HA Binding: RLU in test [13] and in [14] were 758 RLU and 256 RLU, respectively.

B2: TCN-530 (5248_H10a) (antibody, V domains shown)
VH: QVQLVQSGAEVRKPGSSVKVSCKASGGPFMSYAIGWVRQAPGQGLEWMGGINPVFGRPHYAQKFQGRVTIATDDSTKTSYMELSSLTSEDTGMYYCASRYSRSSPGTFESWGQGTLVTVSS
VL: EIVMTQFPATLSVSPGERVTLSCRASQSVSNNLAWYQQKPGQPPRLLIYDASTRATGVPAKFSGTGSGTEFTLSISSLQSEDFAVYYCQQYHNWPPSYSFGLGTKLEIK
In the case of B2, the Trimeric HA Binding: RLU amounted to 30400 RLU in [15], 139 RLU in test [16] and 158 RLU in [14].

B3: TCN-543 (5081_G23) (antibody, V domains shown)
VH: QVHLVQSGAEVRKPGDSVKVSCKTSGYTFSTYPVAWVRQVPGQGLEWMGWISTYNGNTNFAQNFQGRVTLTTDTTTNTAYMEVRSLKFDDTAVYYCARVEGSYRDFWNNQNRFDPWGQGTLVTVSS
VL: SYVLTQPPSVSVAPGQTARISCGGSNIGGKSVHWYQQKPGQAPVLVVYDDSGRPSGIPERFSGSNSGDTATLTISRVEAGDEADYFCQVWDNFGGVFGTGTKVTVL
For the molecule B3, the Trimeric HA Binding: RLU was 1430 RLU in test [17], 169 RLU in [16] and 119 RLU in test [14].

B4: TCN-534 (5249_B02) (antibody, V domains shown)
VH: QVQLVQSGAEVKKPGSSVKVSCRESGGTFNGYTITWVRQAPGQGLEWMGGIIPMMGTVNYAQKLQGRVTITTDYFTKTAYMDLNNLRSEDTAMYYCVKIRYTGQQLLWGQGTLVTVSS
VL: DIQMTQSPSTLSASIGDRVTITCRASQSIASWLAWYQQKPGKAPKLLIYEAVNLESGVPSRFSGSGSGTDFTLTISSLQPDDFATYFCQHYGTISQTFGGGTKVEIK
For B4, the Trimeric HA Binding: RLU in test [15] amounted to 41400 RLU.

B5: TCN-540 (5060_F05) (antibody, V domains shown)
VH: QVQLVQSGGGVVQPGRSLRLSCAASGFTFSSYAMHWVRQAPGKGLEWVAIISYDGNDQYYTDSVKGRFTISRDSSKVYLQMHRLRPEDTAVYYCAKEFETSGYFHGSFDYWGQGILVTVSS
VL: QSALTQPASVSGSPGQSITISCTGTSSDVGGYNYVSWYQQHPGKAPKLLIYEVTNWPSGVSNRFSGSKSGNTASLTISGLQAEDEADYYCSSYAGSSTWVFGGGTRVTVL
In the case of B5, the Trimeric HA Binding: RLU in test [17] is 1550 RLU; in test [15], 1970 RLU; in test [16], 138 RLU; in test [14], 318 RLU.

B6: TCN-536 (5095_N01) (antibody, V domains shown)
VH: QVQLQQWGAGLLKPSETLSLTCAVYGGSFSVSGYYWSWIRQPPGRGLEWIGEISHGGSTNYNPSLKSRVTISVDTTKNQFSLRLSSVTAADTAVYYCARGTDPDTEVYCRVGNCAAFDYWGQGSLVTVSS
VL: EIILAQSPGTLSLSPGERATLSCRASQFVSTRSLAWYQQRPGQAPRLLIYGASSRATGIPDRFSGSGSGTDFTLTISRLEPEDFAVYYCQHYGYSPRYAFGQGSKVEIK
B6: the values for the Trimeric HA Binding: RLU in test [16] and in test [14] were 126 RLU and 251 RLU, respectively.

B7: TCN-538 (3206_O17) (antibody, V domains shown)
VH: QITLKESGPTLVKPTQTLTLTCVFSGFSLSITGVRVGWIRQPPGKALEWLALISWDDEKHYSPSLQSRLTITKDTSKNQVVLTMTNLDPVDTATYYCARSTDRGHVLRYFGWMLPGDAFDVWGQGTMVTVSS
VL: DIVMTQSPDFLPVSLGERATINCKSSQRVLYSSNNKNYLAWYQLKPGQPPKLIIYWASTRESGVPDRFSGSGSGTEFTLTISSLQAEDVAVYYCQQYYSRPYTFGQGTKLEIK
For the molecule B7, the Trimeric HA Binding: RLU in [17] came to 5170 RLU; in test [15], 23600 RLU.

B8: TCN-552 (5249_I23) (antibody, V domains shown)
VH: QVQVVQSGAEVKKPGSSVRVSCQASGGTFMNYAIIWVRRAPGQGLEWMGGIIPVFPTPNYAQMFQGRVTISTDESRSTSFLELTNLRYEDTAVYYCARRIYHGGNSGFDFWGQGTLVTVSS
VL: EIVLTQSPATLSLSPGERATLSCRASQSVGNYLAWYQQKPGQAPRLLIYDSSNRAPGIPARFSGSGSGTDFTLTISSLAPEDFAVYYCQQRSKWPPMYSFGHGTKLEIK
As for B8, the Trimeric HA Binding: RLU in test [1] was 15900 RLU; in test [2], 21200 RLU; in test [3], 18500 RLU; in test [4], 18500 RLU; in test [5] it was 36300 RLU; in test [6] it was 9010 RLU. Moreover, the Trimeric HA Binding: RLU in [7] was determined as 23500 RLU; in test [8], 43900 RLU; in test [9], 34500 RLU; in test [10] it was 37400 RLU; in test [11], 43400 RLU; in [12] it was 52000 RLU. In addition, the results for the Trimeric HA Binding: RLU in [13] and in [15] were 48600 RLU and 40000 RLU, respectively.

B9: TCN-546 (5089_L08) (antibody, V domains shown)
VH: QVQLQQWGAGLLKPSETLSLTCGVYGGSLSDYYWSWIRQPPGKGLEWIGEINHSGGTNYNPSLKRRVTISVDTSKKQFSLKMNSVTAADTAVYYCARGTDPDTEVYCRAGNCAAFDFWGQGTLVTVSS
VL: EIVLTQSPGTLSLSPGERATLSCRASHFVIGRAVAWYQQKPGQAPRLLIYGASSRATGIPDRFSGSGSGTDFTLTISRLETEDFAVFYCQHYGSSPRYAFGQGTKLEIK
As to B9, the Trimeric HA Binding: RLU came to 1240 RLU in test [17] and 211 RLU in test [14].

B10: TCN-539 (5056_A08) (antibody, V domains shown)
VH: QVQLVESGGGVVQPGRSLRLSCAASEITFITYAMHWVRQAPGKGLEWVALISDDGSNKFYADSVKGRFTISRDNSKNTLYLQMNSLRAEDTAAYYCAREGVYFDSGTYRGYFDYWGQETLVTVSS
VL: EIVLTQSPATLSLSPGERATLSCRASQSVSSYLAWYQQKPGQAPRLLIYDASNRATGIPARFSGSGSGTDFTLTISSLEPEDFAVYYCQQRSHWPPITFGQGTRLEIK
On to B10, for which the Trimeric HA Binding: RLU was 1450 RLU in test [17], 11400 RLU in test [15] and 124 RLU in [14].

B11: TCN-535 (5246_P19) (antibody, V domains shown)
VH: QVQLVQSGSEVKKPGTSVKVSCTASGSVFTNYGISWVRQAPGQGLEWMGGIIPLFGAAKYAQKFQGRVTITADESTKTVYMELSRLTSKDTAIYFCAKAPRVYEYYFDQWGQGTPVTVSS
VL: EIVLTQSPGTLSLSPGERATLSCRASQSVSSSQLAWYQQKPGQAPRLIIYGASTRATGIPDRFSGSGSGTDFTLTIGRLEPEDFAVFFCQQYSTSPPTFGQGTKVDFK
Regarding B11, the Trimeric HA Binding: RLU in test [15] turned out to be 39400 RLU.
